Assay results taken from patent US20110129476A1 (MAX PLANCK GESELLSCHAFT ZUR FORDERUNG DER WISSENSCHAFTEN E V, published 2011).

How the values were obtained:
[1] = biological target: RACK1 (receptor for activated C kinase 1), endogenous protein of murine K46 B cells (mouse, UniProt P68040 1-317); assay: reciprocal co-immunoprecipitation (α-RACK1; α-MZB1 5C11 Sepharose) from membrane and cytosolic fractions of K46 B cells, immunoblot
[2] = biological target: T1, ERp57, endogenous protein of murine K46 B cells (mouse, UniProt P27773 25-505); assay: formaldehyde crosslinking, α-MZB1 immunoprecipitation and mass spectrometry; co-immunoprecipitation of endogenous proteins from K46 extracts
T1 sequence (looked up): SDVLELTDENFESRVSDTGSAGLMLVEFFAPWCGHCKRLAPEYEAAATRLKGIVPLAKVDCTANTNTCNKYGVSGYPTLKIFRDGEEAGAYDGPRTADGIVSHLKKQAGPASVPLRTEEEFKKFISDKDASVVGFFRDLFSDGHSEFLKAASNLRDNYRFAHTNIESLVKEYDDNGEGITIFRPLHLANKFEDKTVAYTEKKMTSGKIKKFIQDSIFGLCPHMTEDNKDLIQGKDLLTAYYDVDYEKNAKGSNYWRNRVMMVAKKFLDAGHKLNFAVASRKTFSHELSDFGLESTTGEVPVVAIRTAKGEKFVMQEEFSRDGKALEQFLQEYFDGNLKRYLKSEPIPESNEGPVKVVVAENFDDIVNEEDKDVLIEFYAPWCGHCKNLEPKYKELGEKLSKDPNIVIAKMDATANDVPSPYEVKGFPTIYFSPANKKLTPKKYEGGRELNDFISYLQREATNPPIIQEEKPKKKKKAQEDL
Experimental: (§1) Approximately […] of K46 mature B cells were cultured until reaching the exponential growth phase, harvested and in vivo formaldehyde crosslinking was performed by adding 1% formaldehyde (final concentration) directly to the K46 cell culture. Cells were incubated for 10 min at 37° C. and 5% CO₂ and the crosslinking reaction was quenched by addition of 2.5M glycine with a final concentration of 125 mM. After crosslinking, cells were collected, washed with ice-cold PBS and frozen at −80° C. prior to lysis. […] The immunoprecipitated proteins were eluted with sample buffer and separated on a 4%-12% gradient SDS-PAGE. The gel was silver stained. The marked bands (arrow) were cut out and prepared for mass spectrometry analysis.

[3] = biological target: GRP94 (Endoplasmin), endogenous protein of murine K46 B cells (mouse, UniProt P08113 22-802); assay: as above
Experimental: as §1

[4] = biological target: T2, ERp44, endogenous protein of murine K46 B cells (mouse, UniProt Q9D1Q6 30-406); assay: as above
T2 sequence (looked up): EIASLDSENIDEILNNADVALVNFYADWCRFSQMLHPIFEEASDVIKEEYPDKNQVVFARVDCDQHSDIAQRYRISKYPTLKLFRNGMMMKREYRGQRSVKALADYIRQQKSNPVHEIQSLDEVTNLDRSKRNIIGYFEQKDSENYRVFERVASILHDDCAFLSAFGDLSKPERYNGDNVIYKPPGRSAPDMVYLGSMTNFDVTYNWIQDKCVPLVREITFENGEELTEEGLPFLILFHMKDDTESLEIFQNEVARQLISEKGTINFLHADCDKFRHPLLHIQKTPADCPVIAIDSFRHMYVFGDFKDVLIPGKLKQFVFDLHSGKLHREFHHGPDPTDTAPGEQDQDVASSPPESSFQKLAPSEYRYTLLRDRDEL
Experimental: as §1

Measured: binding result

GRP94 (Endoplasmin), endogenous protein of murine K46 B cells, sequence (P08113 22-802 limits assumed): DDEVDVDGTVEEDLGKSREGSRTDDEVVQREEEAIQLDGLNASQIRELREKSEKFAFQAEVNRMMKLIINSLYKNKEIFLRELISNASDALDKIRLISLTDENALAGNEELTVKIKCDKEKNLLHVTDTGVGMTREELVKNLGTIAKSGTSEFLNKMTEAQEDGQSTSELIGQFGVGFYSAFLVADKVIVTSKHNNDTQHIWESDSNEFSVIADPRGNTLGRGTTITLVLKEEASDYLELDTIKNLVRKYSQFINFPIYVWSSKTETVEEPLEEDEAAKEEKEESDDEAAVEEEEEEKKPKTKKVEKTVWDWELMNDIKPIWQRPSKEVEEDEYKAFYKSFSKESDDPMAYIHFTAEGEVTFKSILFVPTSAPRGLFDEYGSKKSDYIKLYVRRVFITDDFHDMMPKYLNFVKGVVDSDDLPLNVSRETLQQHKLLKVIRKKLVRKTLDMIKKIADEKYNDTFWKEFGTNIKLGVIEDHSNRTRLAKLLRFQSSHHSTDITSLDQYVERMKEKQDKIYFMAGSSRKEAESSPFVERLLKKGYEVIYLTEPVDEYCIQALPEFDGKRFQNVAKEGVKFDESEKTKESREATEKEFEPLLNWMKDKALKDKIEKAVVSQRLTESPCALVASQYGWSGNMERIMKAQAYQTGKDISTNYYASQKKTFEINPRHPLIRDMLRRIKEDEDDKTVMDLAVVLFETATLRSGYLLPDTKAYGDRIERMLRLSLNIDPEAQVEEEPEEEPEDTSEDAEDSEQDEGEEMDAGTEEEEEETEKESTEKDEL

B1: MZB1 (marginal zone B1 B cell factor 1), endogenous protein of murine K46 mature B cells (other)
chain: GDRVSLSASAPTLDDEEKYSAHMPAHLRCDACRAVAFQMGQRLAKAEAKSHTPDASGLQELSESTYTDVLDQTCSQNWQSYGVHEVNQMKRLTGPGLSKGPEPRISVMISGGPWPNRLSKTCFHYLGEFGEDQIYEAYRQGQANLEALLCGGTHGPCSQEILAQREEL
notes: Endogenous protein in K46 cell extracts (whole cell, membrane or cytosolic fraction); also called AL1
binds: all assays above
